Article PMC4686834, “Autocrine selection of a GLP-1R G-protein biased agonist with potent antidiabetic effects” (Nature Communications, 2015)

Legend:
[1] = biological target: human GLP-1 receptor (stable CHO cell line) (human) (UniProt P43220)
[2] = biological target: mouse GLP-1 receptor (HEK293 cell line) (mouse) (UniProt O35659)
mouse GLP-1 receptor (HEK293 cell line) (mouse), sequence (O35659 22-463): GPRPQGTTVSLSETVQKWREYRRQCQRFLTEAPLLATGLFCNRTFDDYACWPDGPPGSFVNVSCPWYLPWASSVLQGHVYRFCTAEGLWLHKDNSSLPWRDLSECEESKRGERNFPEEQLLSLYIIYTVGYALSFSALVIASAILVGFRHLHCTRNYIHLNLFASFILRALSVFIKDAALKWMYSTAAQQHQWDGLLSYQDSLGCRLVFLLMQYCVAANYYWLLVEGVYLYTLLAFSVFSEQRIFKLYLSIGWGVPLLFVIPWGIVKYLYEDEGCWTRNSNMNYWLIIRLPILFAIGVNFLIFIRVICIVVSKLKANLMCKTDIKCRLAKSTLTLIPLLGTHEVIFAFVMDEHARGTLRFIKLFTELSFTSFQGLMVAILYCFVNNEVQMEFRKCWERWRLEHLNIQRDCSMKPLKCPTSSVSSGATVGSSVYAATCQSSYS

human GLP-1 receptor (stable CHO cell line) (human), sequence (P43220 24-463): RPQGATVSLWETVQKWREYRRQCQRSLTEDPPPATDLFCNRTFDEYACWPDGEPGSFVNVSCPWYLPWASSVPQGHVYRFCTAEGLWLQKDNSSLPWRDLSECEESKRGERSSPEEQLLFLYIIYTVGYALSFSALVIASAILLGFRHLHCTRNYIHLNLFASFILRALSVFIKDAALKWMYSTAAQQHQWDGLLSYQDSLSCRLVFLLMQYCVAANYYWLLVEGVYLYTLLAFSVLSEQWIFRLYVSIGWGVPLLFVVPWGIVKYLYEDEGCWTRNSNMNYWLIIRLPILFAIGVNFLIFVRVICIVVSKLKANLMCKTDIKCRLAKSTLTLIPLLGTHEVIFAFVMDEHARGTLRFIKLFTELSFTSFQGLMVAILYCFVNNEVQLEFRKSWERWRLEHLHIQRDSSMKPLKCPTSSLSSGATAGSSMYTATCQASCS

Substance: Exendin-4 (from UniProt P26349 48-87) (peptide)
- EC50, cAMP production (Gαs; HTRF) in CHO cells expressing human GLP-1R [1]: 0.091 nM
- EC50, cAMP production (Gαs; HTRF) in HEK293 cells expressing mouse GLP-1R [2]: 0.322 nM
